Test results published in publication PMC8457657.

Target: pseudotyped SARS-CoV-2 (spike on lentivirus), active (SARS-CoV-2) (UniProt P0DTC2)
Test: ELONA
Settings: pH 7.2, pH 7.4, room temperature ([…], MST 10 min)

Work on “CCCGACCAGCCACCATCAGCAACTCTTCCGCGTCCATCCCTGCTG [SARS2-AR10]” yielded a Kd of 79 nM.
